The values that follow come from US20100166808A1, “Method of Facilitating Intracellular Uptake or Transcellular Transport of Cargo Using Nanocarriers Containing Optimal Surface Densities of Integrin-Specific Ligands” (priority 2008, published 2010).

Holding throughout (test): Selectivity for human integrin receptors: phage binding to plate-coated purified integrin
What all share (settings): FIG. 1; purified integrin coated at 1 μg/mL; phage-displayed ligand, detection at 450 nm

One test deals with αvβ3 integrin receptor.
Test [1] addresses T1, human α5β1 integrin receptor (Homo sapiens, UniProt P05556+P08648).
T1 construct: purchased Chemicon, Temecula, Calif
On the procedure: (§1) Nunc MaxiSorp™ 96-well plates are coated with 200 μL of purified human α3β1, α5β1, and αvβ5 integrins (Chemicon, Temecula, Calif.) at 1 μg/mL in Tween 20™/PBS buffer, pH 7.5 (4° C.). After blocking for two hours with 5% (w/v) BSA (bovine serum albumin) in PBS, pH 7.5, phage samples are incubated with integrins in PBS, pH 7.5, supplemented with 2.5% (w/v) non-fat dry milk. After one hour of incubation, unbound phages are removed and the wells are washed five times with Ca^2+- and Mg^2+-containing PBS, pH 7.5.
(§2) Bound phages are quantified spectrophotometrically at λ=450 nm using monoclonal mouse T7 tail fiber antibody (1:5,000) followed by goat anti-mouse IgG horseradish peroxidase:conjugate (1:5,000) and TMB (3,3′,5,5′-tetramethyl-benzidine) as substrate.

The next test has as its target T2, α3β1 integrin receptor (Homo sapiens, UniProt P05556+P26006).
T2 construct: purchased Chemicon, Temecula, Calif
Here is the method:
as §1, §2

T1 sequence (P08648 42-894 limits assumed): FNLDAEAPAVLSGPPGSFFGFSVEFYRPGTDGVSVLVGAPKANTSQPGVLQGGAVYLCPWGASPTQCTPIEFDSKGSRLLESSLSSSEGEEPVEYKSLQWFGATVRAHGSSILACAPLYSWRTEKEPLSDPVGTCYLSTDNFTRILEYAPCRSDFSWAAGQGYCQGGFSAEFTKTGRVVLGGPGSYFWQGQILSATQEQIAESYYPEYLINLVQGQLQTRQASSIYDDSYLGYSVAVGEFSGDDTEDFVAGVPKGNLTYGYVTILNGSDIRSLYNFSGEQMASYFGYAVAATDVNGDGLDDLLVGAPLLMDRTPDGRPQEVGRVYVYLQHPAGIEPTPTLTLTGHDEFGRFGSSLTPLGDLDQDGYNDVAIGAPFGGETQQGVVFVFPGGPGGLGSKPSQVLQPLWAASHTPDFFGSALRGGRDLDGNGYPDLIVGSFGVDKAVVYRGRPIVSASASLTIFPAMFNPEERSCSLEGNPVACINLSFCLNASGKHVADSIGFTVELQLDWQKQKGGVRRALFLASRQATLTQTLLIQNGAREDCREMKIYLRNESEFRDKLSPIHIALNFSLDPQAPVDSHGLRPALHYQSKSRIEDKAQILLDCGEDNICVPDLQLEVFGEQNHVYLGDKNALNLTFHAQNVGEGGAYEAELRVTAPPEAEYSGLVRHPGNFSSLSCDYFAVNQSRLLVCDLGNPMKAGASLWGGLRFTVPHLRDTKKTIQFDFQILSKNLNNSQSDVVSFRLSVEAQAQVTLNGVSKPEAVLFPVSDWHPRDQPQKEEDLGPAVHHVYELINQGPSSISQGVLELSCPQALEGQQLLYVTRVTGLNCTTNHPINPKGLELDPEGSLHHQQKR
T1 sequence (P08648 895-1049 partner limits assumed): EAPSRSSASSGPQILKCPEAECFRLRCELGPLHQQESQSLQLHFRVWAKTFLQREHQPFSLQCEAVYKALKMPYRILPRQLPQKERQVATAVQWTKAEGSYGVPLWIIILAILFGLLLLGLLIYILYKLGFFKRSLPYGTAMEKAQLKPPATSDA
T1 sequence (P05556 21-798): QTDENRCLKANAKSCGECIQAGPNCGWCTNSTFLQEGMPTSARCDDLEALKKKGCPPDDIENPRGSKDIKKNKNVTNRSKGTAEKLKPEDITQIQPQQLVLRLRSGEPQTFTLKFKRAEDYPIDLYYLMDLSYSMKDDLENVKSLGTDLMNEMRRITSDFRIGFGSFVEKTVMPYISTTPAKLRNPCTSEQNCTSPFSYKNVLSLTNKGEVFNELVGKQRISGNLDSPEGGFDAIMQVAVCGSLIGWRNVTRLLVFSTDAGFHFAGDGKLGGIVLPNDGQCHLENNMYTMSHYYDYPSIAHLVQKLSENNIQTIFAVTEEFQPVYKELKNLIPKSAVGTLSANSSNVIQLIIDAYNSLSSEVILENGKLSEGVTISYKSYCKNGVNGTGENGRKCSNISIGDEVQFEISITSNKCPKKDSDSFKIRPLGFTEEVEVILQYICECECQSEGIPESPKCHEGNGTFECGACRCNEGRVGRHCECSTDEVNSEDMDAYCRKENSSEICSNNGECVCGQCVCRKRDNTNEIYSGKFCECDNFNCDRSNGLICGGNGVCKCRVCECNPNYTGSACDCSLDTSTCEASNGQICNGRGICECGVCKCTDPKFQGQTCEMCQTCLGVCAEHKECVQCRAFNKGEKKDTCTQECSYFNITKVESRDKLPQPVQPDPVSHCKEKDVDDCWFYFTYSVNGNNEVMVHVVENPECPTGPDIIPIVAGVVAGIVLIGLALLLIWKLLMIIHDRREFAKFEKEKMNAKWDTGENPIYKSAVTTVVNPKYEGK
T2 sequence (P26006 33-872 limits assumed): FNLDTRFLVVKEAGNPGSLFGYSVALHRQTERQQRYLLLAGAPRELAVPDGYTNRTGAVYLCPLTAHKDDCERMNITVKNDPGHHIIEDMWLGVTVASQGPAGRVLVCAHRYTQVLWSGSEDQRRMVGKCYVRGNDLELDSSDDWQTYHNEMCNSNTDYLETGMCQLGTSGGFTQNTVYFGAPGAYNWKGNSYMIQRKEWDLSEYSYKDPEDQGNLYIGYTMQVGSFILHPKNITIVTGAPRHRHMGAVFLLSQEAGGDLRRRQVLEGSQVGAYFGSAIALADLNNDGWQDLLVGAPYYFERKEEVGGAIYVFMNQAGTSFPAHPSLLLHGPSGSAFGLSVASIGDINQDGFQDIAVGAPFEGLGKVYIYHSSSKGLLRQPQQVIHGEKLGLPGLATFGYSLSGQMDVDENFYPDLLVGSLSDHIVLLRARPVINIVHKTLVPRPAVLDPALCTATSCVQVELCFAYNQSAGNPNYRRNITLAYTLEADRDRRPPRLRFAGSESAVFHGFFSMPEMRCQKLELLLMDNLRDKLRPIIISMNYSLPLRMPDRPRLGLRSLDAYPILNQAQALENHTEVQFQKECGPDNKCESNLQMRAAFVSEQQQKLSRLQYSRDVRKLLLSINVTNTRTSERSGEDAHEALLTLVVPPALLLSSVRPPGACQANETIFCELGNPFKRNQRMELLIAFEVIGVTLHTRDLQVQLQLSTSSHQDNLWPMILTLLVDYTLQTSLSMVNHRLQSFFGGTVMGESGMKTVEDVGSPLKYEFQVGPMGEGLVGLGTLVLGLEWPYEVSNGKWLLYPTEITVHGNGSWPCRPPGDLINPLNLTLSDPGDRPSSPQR
T2 sequence (P26006 873-1051 partner limits assumed): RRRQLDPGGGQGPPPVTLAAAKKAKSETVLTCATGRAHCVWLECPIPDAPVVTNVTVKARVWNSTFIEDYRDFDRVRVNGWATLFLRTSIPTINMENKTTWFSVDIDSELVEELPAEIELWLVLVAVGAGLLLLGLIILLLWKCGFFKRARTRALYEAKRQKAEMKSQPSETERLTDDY
T2 sequence (P05556 21-798): as the sequence (P05556 21-798) above

As to “RYRGDLGRR [α5β1 integrin-specific ligand peptide]”, the “affinity for αvβ3 integrin receptor” value with αvβ3 integrin receptor is listed as “displays affinity”. Also, the “binding to surface-immobilized human α5β1 integrin receptor” value in test [1] was “binds most effectively”. Also, the “affinity for α3β1 integrin receptor” value in the test with α3β1 integrin receptor was “displays affinity”.
